From patent US20210032351A1 (XDCEXPLORER SHANGHAI, published 2021)

Tests used:
[1] = molecular target: T1, human EGFRvIII protein on the surface of U87MG-hEGFRvIII cells (human, UniProt P00533 25-1210); experiment: FACS on U87MG-hEGFRvIII cells
T1 construct: whole, on cells; Stably transfected U87MG cells; also called mutant EGFRvIII protein; U87MG-EGFRvIII
Procedure: (§1) The cells are washed twice with the HBSS buffer and are counted, and then the cells are diluted with the HBSS buffer to 2×10⁶ cells/ml, added with 1% goat serum blocking solution, with the percentage being the mass percentage, and incubated on ice for 30 minutes, and then centrifugally washed twice with the HBSS buffer. The collected cells are suspended to 2×10⁶ cells/mL with an FACS buffer (HBSS+1% BSA, with the percentage being the mass percentage), added to a 96-well FACS reaction plate at 100 μL/well, then added with 100 μL/well of the purified EGFRvIII antibody (samples to be tested) obtained in example 2, and incubated on ice for 2 hours. The plate is centrifugally washed twice with the FACS buffer, added with 100 μL/well of a fluorescence (Alexa 488) labeled secondary antibody (purchased from Invitrogen), and then incubated on ice for 1 hour. The plate is centrifugally washed 3 times with the FACS buffer, added with 100 μL/well of a fixing solution [4% (v/v) paraformaldehyde] for suspending the cells, and centrifugally washed twice with the FACS buffer after 10 minutes. The cells are suspended in 100 μL of the FACS buffer, and the results are detected and analyzed by FACS (FACS Calibur, purchased from BD). Data analysis is performed by using the software (CellQuest) to obtain the mean fluorescence intensity (MFI) of the cells. Data is further analyzed by using the software (GraphPad Prism5) to perform data fitting and calculate EC50. […] A431 cells (human epidermal cell cancer cell lines) have a large amount of wild-type EGFR protein expressed on the surface thereof. […] U87MG cells (human glioma cell lines) have a small amount of wild-type EGFR protein expressed on the surface thereof, while HEB cells (human glioma cell lines) have a high level of wild-type EGFR protein expression on the surface thereof.

[2] = molecular target: T2, wild-type human EGFR protein on the surface of cells (A431, HEB, U87MG) (human, UniProt P00533 25-1210); experiment: FACS on A431 cells
T2 construct: whole, on cells; One molecule for all three cell lines; the cell line is named under assay; also called wild-type EGFR
Procedure: as §1, with “The” for “The cells are washed twice with the HBSS buffer and are counted, and then the cells are diluted with the HBSS buffer to 2×10⁶ cells/ml, added with 1% goat serum blocking solution, with the percentage being the mass percentage, and incubated on ice for 30 minutes, and then centrifugally washed twice with the HBSS buffer. The”

[3] = molecular target: T3, human EGFRvIII-hFc protein (human, UniProt P00533 25-645); experiment: ELISA, EGFRvIII-hFc coated
T3 construct: extracellular domain; also called immunogen A; hFc-tagged EGFRvIII protein; not shown: human IgG Fc fragment (hFc) of the pCpC vector
Procedure: The purified immunogen A (EGFRvIII-hFc) obtained in example 1 (for the preparation method, see step (I) in example 1) is diluted with PBS to a final concentration of 1.0 μg/mL, and then added to a 96-well ELISA plate at 100 μl/well. The plate is sealed with a plastic film and incubated at 4° C. overnight. The next day, the plate is washed twice with a plate washing solution [PBS+0.01% (v/v) Tween20], and added with a blocking solution [PBS+0.01% (v/v) Tween20+1% (w/w) BSA] for blocking 2 hours at room temperature. […] The plate is incubated for 2 hours at 37° C., and then washed 3 times with the plate washing solution [PBS+0.01% (v/v) Tween20]. The plate is added with an HRP (horseradish peroxidase) labeled secondary antibody (purchased from Sigma), incubated at 37° C. for 2 hours, and then washed 3 times with the plate washing solution [PBS+0.01% (v/v) Tween20]. The plate is added with 100 μl of TMB substrate/well, incubated for 30 minutes at room temperature, and then added with 100 μl of stopping solution (1.0N HCl)/well. A450 nm value is read using an ELISA plate reader (SpectraMax 384plus, purchased from Molecular Device), and the results are shown in FIG. 11 and table 19.

[4] = molecular target: T4, human EGFRvIII protein on the cell surface (human, UniProt P00533 25-1210); experiment: FACS on CHOk1-EGFRvIII cells
T4 construct: whole, on cells; the cell line is named under assay; also called hEGFRvIII; U87MG-hEGFRvIII
Procedure: The desired cells are subjected to an expanded culture to 90% confluence in a T-75 cell culture flask; the medium is sucked out, and the cells are washed twice with a HBSS buffer (Hanks Balanced Salt Solution) (purchased from Invitrogen), and then treated with an enzyme-free cell dissociation solution (Versene solution: purchased from Life Technology) and collected. The cells are washed twice with the HBSS buffer and are counted, and then the cells are diluted with the HBSS buffer to 2×10⁶ cells/ml, added with 1% goat serum blocking solution, with the percentage being the mass percentage, and incubated on ice for 30 minutes, and then centrifugally washed twice with the HBSS buffer. The collected cells are suspended to 2×10⁶ cells/mL with an FACS buffer (HBSS+1% BSA, with the percentage being the mass percentage), added to a 96-well FACS reaction plate at 100 μL/well, then added with 100 μL/well of the purified EGFRvIII antibody (samples to be tested) obtained in example 2, and incubated on ice for 2 hours. The plate is centrifugally washed twice with the FACS buffer, added with 100 μL/well of a fluorescence (Alexa 488) labeled secondary antibody (purchased from Invitrogen), and then incubated on ice for 1 hour. The plate is centrifugally washed 3 times with the FACS buffer, added with 100 μL/well of a fixing solution [4% (v/v) paraformaldehyde] for suspending the cells, and centrifugally washed twice with the FACS buffer after 10 minutes. The cells are suspended in 100 μL of the FACS buffer, and the results are detected and analyzed by FACS (FACS Calibur, purchased from BD). Data analysis is performed by using the software (CellQuest) to obtain the mean fluorescence intensity (MFI) of the cells. Data is further analyzed by using the software (GraphPad Prism5) to perform data fitting and calculate EC50. […] A431 cells (human epidermal cell cancer cell lines) have a large amount of wild-type EGFR protein expressed on the surface thereof.

[5] = molecular target: T5, human wild-type EGFR protein on the cell surface (human, UniProt P00533 25-1210); experiment: FACS on CHOk1-EGFR cells
T5 construct: whole, on cells; Endogenous on A431, HEB, U87MG cells and normal human primary hepatocytes; transfected on CHOk1-EGFR cells; The cell is named under assay; also called A431; HEB
Procedure: as §1

Binder | EC50 [1] | binding result [2] | EC50 [3] | Maximum OD450 value [3] | EC50 [4] | Maximum mean fluorescence intensity [4] | EC50 [5] | Maximum mean fluorescence intensity [5]
Murine anti-53D8 (antibody, V domains shown, Mouse hybridoma antibody; also called 53D8H4) VH: QVQLQQSGAELARPGASVKMSCKASGYTFTSYTMHWVKQRPGQGLEWIGYINPSSGYTKYNQIFKDKATLTADKSSSTAYMQLSSLTSEDSAVYYCTRGGGRGFAYWGQGTLVTVSA VL: DILMTQSPSSMSVSLGDTVSITCHASQDINSNIGWLQQKPGKSFKGLIYHGTNLEDGVPSRFSGSGSGADYSLTISSLESEDFADYYCVQYAQFPFTFGSGTKLEIK | 6.8 nM | no binding |  |  |  |  |  | 
Murine anti-49G12 (antibody, V domains shown, Mouse hybridoma antibody; also called 49G12G5) VH: EVQLLQSGAELVKPGASVKLSCTASGFNIKDYYMHWVKQRTEQGLEWIGRIDPEDGETKYAPKFQGKATMTADTSSNTAYLQLSSLTSEDTAVYYCASSAYYGRNYWGQGTTLTVSS VL: QIVLTQSPAIMSASPGEKVTLTCSASSSLSSSYLYWYQQKPGSSPKLWIYSTSNLASGVPARFSGSGSGTSYSLTISSMEAEDAASYFCHQWSSYPYTFGGGTKLEIK | 7.9 nM | no binding |  |  |  |  |  | 
Murine anti-51G7 (antibody, V domains shown, Mouse hybridoma antibody; also called 51G7C2) VH: EVQLQQSGAELVKPGASVKLSCTASGFNIKDFYIHWVKQRTEQGLEWIGRIDPEDGETKYAPKFQDKATIIADTSSNTAYLQLSSLTSEDTAVYYCASSSYYGNNYWGQGTTLTVSS VL: QIVLTQSPAIMSASPGEKVTLTCSASSSVSSNYLYWYQQKPGSSPKLWIYSTSNLASGVPARFSGSGSGTSYSLTISSMEAEDAASYFCHQWSSFPYTFGGGTKLEIK | 26.2 nM | no binding |  |  |  |  |  | 
c75G7C6-1 (antibody, human IgG1, V domains shown, Chimeric 75G7C6 with NG of heavy chain CDR2 mutated to NA; also called c754G7C6-1; mutant chimeric antibody NG/NA) VH: EVQLQQSGPELVKPGASVKIPCKASGYTFTDYNMDWVKQSHGKSLEWIGDINPNNADTIYNQKFKGKATLTVDKSSSTAYMELRSLTSEDTAVYYCARGDYDGYYPVYYAMDYWGQGTSVTVSS VL: ENVLTQSPAIMSASPGEKVTMTCRASSSVSSSYLHWYQQKSGASPKLWIFSTSNLAAGVPARFSGSGSGTSYSLTVSSVEAEDAATYYCQQYSGYPLTFGAGTKLELK |  |  | 0.02 nM | 3.44 OD450 | 7.45 nM | 110000 MFI | 11.3 nM | 134000 MFI
c75G7C6-2 (antibody, human IgG1, V domains shown, Chimeric 75G7C6 with NG of heavy chain CDR2 mutated to QG; also called c754G7C6-2; mutant chimeric antibody NG/QG) VH: EVQLQQSGPELVKPGASVKIPCKASGYTFTDYNMDWVKQSHGKSLEWIGDINPNQGDTIYNQKFKGKATLTVDKSSSTAYMELRSLTSEDTAVYYCARGDYDGYYPVYYAMDYWGQGTSVTVSS VL: ENVLTQSPAIMSASPGEKVTMTCRASSSVSSSYLHWYQQKSGASPKLWIFSTSNLAAGVPARFSGSGSGTSYSLTVSSVEAEDAATYYCQQYSGYPLTFGAGTKLELK |  |  | 0.03 nM | 3.23 OD450 | 11.6 nM | 111000 MFI | 16.9 nM | 130000 MFI

The remaining lines, values ahead:

EC50 [1] | binding result [2] | EC50 [3] | Maximum OD450 value [3] | EC50 [4] | Maximum mean fluorescence intensity [4] | EC50 [5] | Maximum mean fluorescence intensity [5] | Binder
13.3 nM | no binding |  |  |  |  |  |  | Murine anti-46C4 (antibody, V domains shown, Mouse hybridoma antibody; also called 46C4A6) VH: EVHLQQSVAELVRPGASVKLSCTASGFNIKNTYMHWVKQRPEQGLEWIGRIDPANGNTKYAPKFQGKATITADTSSNTAYLQLSSLTSEDTAIYYCASDFDYWGQGTTLTVSS VL: DVLMTQTPLSLPVSLGDQVSISCRSSQSIVNSNGNTHLEWYLQKPGQSPKVLIYKVSKRFSGVPDRFSGSGSGTDFTLKISRVEAEDLGVYYCFQGSHVPYTFGGGTKLEIK
25.3 nM | no binding |  |  |  |  |  |  | Murine anti-64B11 (antibody, V domains shown, Mouse hybridoma antibody; also called 64B11F2) VH: EVQLQQSGAELVKPGASVKLSCTASGFNIKDYYMHWVKQRTEQGLEWIGRIDPEDGETKYAPKFQGKATITADTSSNTAYLQLSNLPSEDTAVYYCGCRTGGFAYWGQGTLVTVSA VL: DILMTQSPSSMSVSLGDTVSITCHASQGINSNIGWLQQKPGKSFKALIYHGTNLEDGVPSRFSGSGSGADYSLTISSLESEDFADYYCVQYAQFPFTFGSGTELEIK
12.3 nM | no binding |  |  |  |  |  |  | Murine anti-56F10 (antibody, V domains shown, Mouse hybridoma antibody; also called 56F10G2) VH: EVQLQQSGAELVKPGASVKLSCTASGFNIKDFYMHWVKQRTEQGLEWIGRIDPEDGETKYAPKFQGKATITADTSSNTAYLQLSSLTSEDTAVYYCGCRTGGFAYWGQGTLVTVSA VL: QIVLTQSPAIMSASPGEKVTMTCSASSSVSYLYWYQQKPGSSPSLLIYDTSNLASGVPVRFSGSGSGTSYSLTISRMEAEDAATYYCQQWSRNPWTFGGGTKLEIK
40.9 nM | no binding |  |  |  |  |  |  | Murine anti-59G3 (antibody, V domains shown, Mouse hybridoma antibody; also called 59G3F12) VH: DVQLQESGPGLVKPSQSLSLTCSVTGYSITSGYYWHWIRQFPENKLEWMGYISYDGSNIYNPSLKNRISITRDTSKNQFFLKLNSVTTEDTATYYCAINSDYALDYWGQGTSVTVSS VL: QIVLTQSPAIMSASPGEKVTMTCSASSSVSYMYWYQQKPGSSPRLLIYDTSNLASGVPVRFSGSGSGTSYSLTISRMEAEDAATYYCQQWSSYSLTFGAGTKLELK
